Laboratory results: PMC11189300, “Structure of the human KMN complex and implications for regulation of its assembly” (Nature Structural & Molecular Biology, 2024)

B5: NSL1 (subunit of Mis12C in the KMN structure) (natural protein, human, UniProt Q96IY1 1-281, looked up)
chain: MAGSPELVVLDPPWDKELAAGTESQALVSATPREDFRVRCTSKRAVTEMLQLCGRFVQKLGDALPEEIREPALRDAQWTFESAVQENISINGQAWQEASDNCFMDSDIKVLEDQFDEIIVDIATKRKQYPRKILECVIKTIKAKQEILKQYHPVVHPLDLKYDPDPAPHMENLKCRGETVAKEISEAMKSLPALIEQGEGFSQVLRMQPVIHLQRIHQEVFSSCHRKPDAKPENFITQIETTPTETASRKTSDMVLKRKQTKDCPQRKWYPLRPKKINLDT
notes: NSL1, human; source: Tnao38 insect cells (baculovirus), co-expressed in Mis12C, purified (Talon, SEC)

How the values were obtained:
Details in all cases: both partners purified
[1] = biological target: T1, KNL1 residues 2,021–2,342 (human, UniProt Q8NG31 2021-2342); assay: SEC; KNL1 2,021–2,342, ZWINT, Mis12C and SPC24 109–197/SPC25 92–224 mixed equimolar on ice for at least 1 h; 50 mM HEPES pH 8.0, 150 mM NaCl, 2 mM TCEP; S200 5/150 column
T1 construct: KNL1 (CASC5), human, C-terminal region, residues 2,021–2,342; numbering of isoform 1 of the CASC5 gene; also called KNL1_(2,021–2,342); Knl1_(2,021–2,342); source: E. coli BL21(DE3)-Codon-plus-RIPL, purified (glutathione-agarose, TEV cleavage, SEC)
T1 sequence (looked up): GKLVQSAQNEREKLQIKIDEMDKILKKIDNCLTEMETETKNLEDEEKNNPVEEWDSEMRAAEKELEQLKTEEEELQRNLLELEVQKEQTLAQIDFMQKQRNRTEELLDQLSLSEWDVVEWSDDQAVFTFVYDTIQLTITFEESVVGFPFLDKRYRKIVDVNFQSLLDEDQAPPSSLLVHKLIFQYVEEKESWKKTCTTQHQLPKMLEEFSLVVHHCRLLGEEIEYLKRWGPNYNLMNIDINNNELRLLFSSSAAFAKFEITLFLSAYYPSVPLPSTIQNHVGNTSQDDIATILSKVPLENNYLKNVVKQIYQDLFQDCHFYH

[2] = biological target: T1, KNL1 residues 2,021–2,342; assay: cryo-EM structure; eight-subunit KMN (full-length Mis12C, SPC24 109–197/SPC25 92–224, ZWINT, KNL1 2,021–2,342), 0.3 mg/ml with 0.003% Triton; reconstruction at 4.5 Å; model fitted from known structures and AF2 predictions and refined against the map
[3] = biological target: T2, Mis12 complex (Mis12C), full length: MIS12, PMF1, NSL1, DSN1 (human, UniProt Q9H081 1-205; Q6P1K2 1-205; Q96IY1 1-281; Q9H410 1-356); assay: ITC; PEAQ-ITC; 50 mM HEPES pH 8.0, 150 mM NaCl, 1 mM TCEP; 19 injections; one-site binding fit
T2 construct: MIS12, human, subunit of the Mis12 complex; PMF1, human, subunit of the Mis12 complex; NSL1, human, subunit of the Mis12 complex; DSN1, human, subunit of the Mis12 complex (DSN1^SORT-HIS); In BLI one partner was biotinylated by sortase (GGGG-biotin peptide); also called Mis12C^WT; wild-type Mis12C; source: Tnao38 insect cells (baculovirus from pBIG1A), purified (Talon, SEC); copies: + + +
T2 sequence (looked up) 1: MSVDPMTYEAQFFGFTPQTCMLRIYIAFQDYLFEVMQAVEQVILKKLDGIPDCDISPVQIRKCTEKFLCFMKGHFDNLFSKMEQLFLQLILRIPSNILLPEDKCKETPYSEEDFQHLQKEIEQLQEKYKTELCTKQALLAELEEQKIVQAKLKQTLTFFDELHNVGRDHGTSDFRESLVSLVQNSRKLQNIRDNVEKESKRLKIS
T2 sequence (looked up) 2: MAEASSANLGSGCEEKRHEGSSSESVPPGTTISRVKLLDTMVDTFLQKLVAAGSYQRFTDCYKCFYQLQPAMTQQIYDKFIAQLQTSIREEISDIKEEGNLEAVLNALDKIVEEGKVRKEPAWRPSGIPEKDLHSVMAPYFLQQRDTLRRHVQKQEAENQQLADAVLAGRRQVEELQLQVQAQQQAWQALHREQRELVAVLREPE
T2 sequence (looked up) 3: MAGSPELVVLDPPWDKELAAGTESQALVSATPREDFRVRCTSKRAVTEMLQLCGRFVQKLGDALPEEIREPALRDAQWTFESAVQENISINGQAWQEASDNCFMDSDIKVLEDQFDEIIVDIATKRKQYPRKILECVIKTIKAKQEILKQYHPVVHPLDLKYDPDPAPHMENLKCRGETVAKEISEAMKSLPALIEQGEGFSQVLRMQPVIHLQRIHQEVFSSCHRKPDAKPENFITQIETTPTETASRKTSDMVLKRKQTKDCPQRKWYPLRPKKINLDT
T2 sequence (looked up) 4: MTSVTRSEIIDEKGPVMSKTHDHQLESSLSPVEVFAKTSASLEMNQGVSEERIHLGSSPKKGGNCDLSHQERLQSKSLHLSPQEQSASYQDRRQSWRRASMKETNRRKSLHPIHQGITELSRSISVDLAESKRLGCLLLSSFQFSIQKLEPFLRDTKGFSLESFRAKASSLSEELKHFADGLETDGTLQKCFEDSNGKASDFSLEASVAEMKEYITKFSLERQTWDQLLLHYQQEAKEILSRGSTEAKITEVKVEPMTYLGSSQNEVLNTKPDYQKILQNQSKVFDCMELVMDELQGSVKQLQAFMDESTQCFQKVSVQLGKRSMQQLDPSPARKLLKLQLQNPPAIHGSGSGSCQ

[4] = biological target: T2, Mis12 complex (Mis12C), full length: …; assay: BLI; Octet SA biosensors loaded with the biotinylated ligand, analyte at different concentrations; 25 °C; 50 mM HEPES pH 8.0, 150 mM NaCl, 2 mM TCEP, 0.05% Tween-20; which partner was loaded is not given
[5] = biological target: T3, Mis12C^M5 (NSL1 I216A) (human, UniProt Q9H081 1-205; Q6P1K2 1-205; Q96IY1 1-281; Q9H410 1-356, I216A); assay: ITC; PEAQ-ITC; 50 mM HEPES pH 8.0, 150 mM NaCl, 1 mM TCEP; 19 injections; one-site binding fit
T3 construct: MIS12, human; PMF1, human; NSL1, human, with I216A on the α5 helix; DSN1, human; source: Tnao38 insect cells (baculovirus), purified (Talon, SEC); copies: + + +
T3 sequence (looked up) 1: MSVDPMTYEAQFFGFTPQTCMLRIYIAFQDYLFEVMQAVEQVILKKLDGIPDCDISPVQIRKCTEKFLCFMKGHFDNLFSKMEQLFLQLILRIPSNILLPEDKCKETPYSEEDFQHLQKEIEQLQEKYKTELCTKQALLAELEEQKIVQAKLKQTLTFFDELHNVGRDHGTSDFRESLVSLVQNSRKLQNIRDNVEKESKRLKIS
T3 sequence (looked up) 2: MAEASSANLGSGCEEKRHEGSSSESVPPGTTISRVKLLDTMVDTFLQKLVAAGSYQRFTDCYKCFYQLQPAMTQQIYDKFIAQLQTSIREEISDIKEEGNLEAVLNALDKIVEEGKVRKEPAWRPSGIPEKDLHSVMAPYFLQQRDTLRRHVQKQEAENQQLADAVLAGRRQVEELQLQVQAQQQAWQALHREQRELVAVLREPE
T3 sequence (looked up) 3: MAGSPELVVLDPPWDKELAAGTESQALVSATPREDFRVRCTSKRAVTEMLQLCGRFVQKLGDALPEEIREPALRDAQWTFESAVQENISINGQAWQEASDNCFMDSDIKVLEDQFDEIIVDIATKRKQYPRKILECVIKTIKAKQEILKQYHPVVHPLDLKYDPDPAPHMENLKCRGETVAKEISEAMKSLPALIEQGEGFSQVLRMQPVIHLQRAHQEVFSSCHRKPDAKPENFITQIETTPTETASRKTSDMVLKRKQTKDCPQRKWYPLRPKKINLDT
T3 sequence (looked up) 4: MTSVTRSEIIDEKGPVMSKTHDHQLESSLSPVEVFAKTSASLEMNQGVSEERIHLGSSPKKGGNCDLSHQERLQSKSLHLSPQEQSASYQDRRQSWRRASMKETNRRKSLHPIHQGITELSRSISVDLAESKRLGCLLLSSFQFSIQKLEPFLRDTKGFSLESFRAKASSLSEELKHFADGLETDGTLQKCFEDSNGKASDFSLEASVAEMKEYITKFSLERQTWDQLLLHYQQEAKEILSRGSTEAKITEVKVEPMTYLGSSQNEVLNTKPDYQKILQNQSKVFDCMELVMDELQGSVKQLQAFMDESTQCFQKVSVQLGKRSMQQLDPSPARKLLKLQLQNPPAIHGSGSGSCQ

[6] = biological target: B5; assay: cryo-EM structure; eight-subunit KMN (full-length Mis12C, SPC24 109–197/SPC25 92–224, ZWINT, KNL1 2,021–2,342), 0.3 mg/ml with 0.003% Triton; reconstruction at 4.5 Å; model fitted from known structures and AF2 predictions and refined against the map
[7] = biological target: T4, DSN1 (subunit of Mis12C in the KMN structure) (human, UniProt Q9H410 1-356); assay: as above
T4 construct: DSN1, human; also called DSN1^SORT-HIS; source: Tnao38 insect cells (baculovirus), co-expressed in Mis12C, purified (Talon, SEC)
T4 sequence (looked up): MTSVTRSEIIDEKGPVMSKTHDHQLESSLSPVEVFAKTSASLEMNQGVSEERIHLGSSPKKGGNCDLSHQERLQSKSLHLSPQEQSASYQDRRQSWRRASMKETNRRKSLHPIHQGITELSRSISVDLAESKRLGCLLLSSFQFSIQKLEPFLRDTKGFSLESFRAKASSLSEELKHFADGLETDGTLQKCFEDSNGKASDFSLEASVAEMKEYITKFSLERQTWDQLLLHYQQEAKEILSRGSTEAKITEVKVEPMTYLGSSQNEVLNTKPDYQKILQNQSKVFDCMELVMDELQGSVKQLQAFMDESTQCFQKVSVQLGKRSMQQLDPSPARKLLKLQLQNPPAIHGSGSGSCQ

[8] = biological target: T2, Mis12 complex (Mis12C), full length: …; assay: as above

B1: ZWINT (natural protein, human, UniProt O95229 1-277, looked up)
chain: MEAAETEAEAAALEVLAEVAGILEPVGLQEEAELPAKILVEFVVDSQKKDKLLCSQLQVADFLQNILAQEDTAKGLDPLASEDTSRQKAIAAKEQWKELKATYREHVEAIKIGLTKALTQMEEAQRKRTQLREAFEQLQAKKQMAMEKRRAVQNQWQLQQEKHLQHLAEVSAEVRERKTGTQQELDRVFQKLGNLKQQAEQERDKLQRYQTFLQLLYTLQGKLLFPEAEAEAENLPDDKPQQPTRPQEQSTGDTMGRDPGVSFKAVGLQPAGDVNLP
notes: ZWINT, human; Probably made like the mutants (GST fusion, 3C cleaved); ZWINT was in the cryo-EM sample but is not visible in the map; also called ZWINT^WT
binding result [1]: binds

B2: PMF1 (subunit of Mis12C in the KMN structure) (natural protein, human, UniProt Q6P1K2 1-205, looked up)
chain: MAEASSANLGSGCEEKRHEGSSSESVPPGTTISRVKLLDTMVDTFLQKLVAAGSYQRFTDCYKCFYQLQPAMTQQIYDKFIAQLQTSIREEISDIKEEGNLEAVLNALDKIVEEGKVRKEPAWRPSGIPEKDLHSVMAPYFLQQRDTLRRHVQKQEAENQQLADAVLAGRRQVEELQLQVQAQQQAWQALHREQRELVAVLREPE
notes: PMF1, human; source: Tnao38 insect cells (baculovirus), co-expressed in Mis12C, purified (Talon, SEC)
binding result [2]: binds

B3: KNL1 residues 2,026–2,342 (domain or fragment, human, UniProt Q8NG31 2026-2342, looked up)
chain: SAQNEREKLQIKIDEMDKILKKIDNCLTEMETETKNLEDEEKNNPVEEWDSEMRAAEKELEQLKTEEEELQRNLLELEVQKEQTLAQIDFMQKQRNRTEELLDQLSLSEWDVVEWSDDQAVFTFVYDTIQLTITFEESVVGFPFLDKRYRKIVDVNFQSLLDEDQAPPSSLLVHKLIFQYVEEKESWKKTCTTQHQLPKMLEEFSLVVHHCRLLGEEIEYLKRWGPNYNLMNIDINNNELRLLFSSSAAFAKFEITLFLSAYYPSVPLPSTIQNHVGNTSQDDIATILSKVPLENNYLKNVVKQIYQDLFQDCHFYH
notes: numbering of isoform 1 of the CASC5 gene; also called KNL1^WT; source: E. coli BL21(DE3)-Codon-plus-RIPL, purified (glutathione-agarose, TEV cleavage, SEC)
Kd [3]: ~1.6 nM | Kd [4]: ~2 nM

B4: full-length SPC24/SPC25 (complex, human)
chain 1: MAAFRDIEEVSQGLLSLLGANRAEAQQRRLLGRHEQVVERLLETQDGAEKQLREILTMEKEVAQSLLNAKEQVHQGGVELQQLEAGLQEAGEEDTRLKASLLQLTRELEELKEIEADLERQEKEVDEDTTVTIPSAVYVAQLYHQVSKIEWDYECEPGMVKGIHHGPSVAQPIHLDSTQLSRKFISDYLWSLVDTEW
chain 2: MVEDELALFDKSINEFWNKFKSTDTSCQMAGLRDTYKDSIKAFAEKLSVKLKEEERMVEMFLEYQNQISRQNKLIQEKKDNLLKLIAEVKGKKQELEVLTANIQDLKEEYSRKKETISTANKANAERLKRLQKSADLYKDRLGLEIRKIYGEKLQFIFTNIDPKNPESPFMFSLHLNEARDYEVSDSAPHLEGLAEFQENVRKTNNFSAFLANVRKAFTATVYN
notes: SPC24, human; SPC25, human; GST was cleaved off with 3C protease; also called SPC24/SPC25 heterodimer; SPC24/SPC25 pair; source: E. coli BL21(DE3)-codon-plus-RIPL, purified (glutathione-agarose, 3C protease, SEC)
Kd [3]: ~46 nM | fold reduction of binding affinity against the wild-type pair [5]: ~15 fold

B5
binding result [2]: binds

B6: SPC24_(109–197)/SPC25_(92–224) dimer (complex, human)
chain 1: EELKEIEADLERQEKEVDEDTTVTIPSAVYVAQLYHQVSKIEWDYECEPGMVKGIHHGPSVAQPIHLDSTQLSRKFISDYLWSLVDTEW
chain 2: KKQELEVLTANIQDLKEEYSRKKETISTANKANAERLKRLQKSADLYKDRLGLEIRKIYGEKLQFIFTNIDPKNPESPFMFSLHLNEARDYEVSDSAPHLEGLAEFQENVRKTNNFSAFLANVRKAFTATVYN
notes: SPC25, human, residues 92–224 (RWD domain); GST was cleaved off with 3C protease; also called SPC24/SPC25 dimer; source: E. coli BL21(DE3)-codon-plus-RIPL, purified (glutathione-agarose, 3C protease, SEC)
binding result [6]: binds | binding result [7]: binds | binding result [8]: binds
